Experimental findings from patent US20240148841 are described below.

The data set deals with human IgG (of human serum; IgG against AAV8 in AAV8 positive human serum pools CP16 and P1).

B1: IdeSORK (Xork) IgG protease (protein)
chain: LSKRKLLKKIEKKDTSSVLTQKKQTKTLWADGVQVDDKDFKPSTENFGTNYLAAEYGIGKGYYDINKKFDGTDDDLCSGVVAANQLHWWLDRNKDYIEKYRQQSKDNGVTIGNTDIFELNKLHDEDQSNFFDFIKKSFGNKFLQPERLLNMYINGYGYLTSQDKAKTSQPSPSKLNFFQKVFKNNLLTDKTPINDIDEFSSQTKNALQNHKVLAVSFASIKNRGLGHVVTVWGADFDENGKVVALYVTDSDDRSKNIGNAKLGMKKLRIEVSAQDSSTIKLTGFEDKNSGGSLRHLYSLSTGEQIWKKYFEETEKERIRLEEEADKAKLEQDRIQKEAEEKLALEKAEKERIRLEEEADKAKLEQDRIQKEAEEKLALEKAEKERIRLEEEADKAKLEQDRIQKEAEEKLALEKAEKERIRLEEEADKAKLEQDRIQKEAEEKLALEKAEKERIRLEEEAAKAKLEQEKQIATAPQPDKKQENTTSEQEKPAPTELPPLVNKADETETPRETAPDQTPSATNTFRKILPKMNAVSQFFSQLMGTIQIVFAFILKIFK
With B1, the “cleavage of human IgG in vitro” value is “Xork cleaves human IgG in vitro with the same specificity and mechanism as IdeS”.
